B1: Bis-40E9-L2H6 (bispecific antibody)
heavy 1: not shown
heavy 2: EVQLVQSGAEVKKPGASVKVSCKASGYTFTSYVIHWVRQAPGQGLEWMGYFNPYNDGTKYNEEFKGRVTLTSDKSTSTAYMELRSLRSDDTAVYYCARGGVRRYFDVWGQGTTVTVSSASTKGPSVFPLAPSSKSTSGGTAALGCLVKDYFPEPVTVSWNSGALTSGVHTFPAVLQSSGLYSLSSVVTVPSSSLGTQTYICNVNHKPSNTKVDKKVEPKSCGGGGSGGGGSEVQLVQSGAEVKKPGSSVKVSCKASGYTFSSYVIHWVRQAPGQCLEWMGYINPYNDVIKYNEKFKGRVTLTSDKSTSTAYMELSSLRSEDTAVYYCARESFSSYDGFAYWGQGTLVTVSSGGGGSGGGGSGGGGSGGGGSEIVLTQSPDFQSVTPKEKVTITCSASSSVSYMHWYQQKPDQSPKRLIYDTSKLASGVPSRFSGSGSGTDFTLTINSLEAEDAATYYCQQWSSNPPTFGCGTKVEIKGGGGSGGGGSDKTHTCPPCPAPEAAGGPSVFLFPPKPKDTLMISRTPEVTCVVVDVSHEDPEVKFNWYVDGVEVHNAKTKPREEQYNSTYRVVSVLTVLHQDWLNGKEYKCKVSNKALPAPIEKTISKAKGQPREPQVCTLPPSREEMTKNQVSLSCAVKGFYPSDIAVEWESNGQPENNYKTTPPVLDSDGSFFLVSKLTVDKSRWQQGNVFSCSVMHEALHNHYTQKSLSLSPGK
light: DIQMTQSPSSLSASVGDRVTITCRASQDIGSNLNWLQQKPGKAIKRLIYATFGLDSGVPSRFSGSRSGTDFTLTISSLQPEDFATYYCQQYASFPYTFGGGTKVEIKRTVAAPSVFIFPPSDEQLKSGTASVVCLLNNFYPREAKVQWKVDNALQSGNSQESVTEQDSKDSTYSLSSTLTLSKADYEKHKVYACEVTHQGLSSPVTKSFNRGEC
notes: Fab-scFv-Fab format with LALA mutations
B2: Bis-40E9-L5H7 (bispecific antibody)
heavy 1: not shown
heavy 2: EVQLVQSGAEVKKPGASVKVSCKASGYTFTSYVIHWVRQAPGQGLEWMGYFNPYNDGTKYNEEFKGRVTLTSDKSTSTAYMELRSLRSDDTAVYYCARGGVRRYFDVWGQGTTVTVSSASTKGPSVFPLAPSSKSTSGGTAALGCLVKDYFPEPVTVSWNSGALTSGVHTFPAVLQSSGLYSLSSVVTVPSSSLGTQTYICNVNHKPSNTKVDKKVEPKSCGGGGSGGGGSEVQLVQSGAEVKKPGSSVKVSCKASGYTFSSYVIHWVRQAPGQCLEWMGYINPGNGVIKYNEKFKGRVTLTSDKSTSTAYMELSSLRSEDTAVYYCARDSYSSYDGFAYWGQGTLVTVSSGGGGSGGGGSGGGGSGGGGSEIVLTQSPDFQSVTPKEKVTITCSASSSVSYMHWYQQKPDQSPKRLIYDTSKLASGVPSRFSGSGSGTDFTLTINSLEAEDAATYYCQQWRSSPPTFGCGTKVEIKGGGGSGGGGSDKTHTCPPCPAPEAAGGPSVFLFPPKPKDTLMISRTPEVTCVVVDVSHEDPEVKFNWYVDGVEVHNAKTKPREEQYNSTYRVVSVLTVLHQDWLNGKEYKCKVSNKALPAPIEKTISKAKGQPREPQVCTLPPSREEMTKNQVSLSCAVKGFYPSDIAVEWESNGQPENNYKTTPPVLDSDGSFFLVSKLTVDKSRWQQGNVFSCSVMHEALHNHYTQKSLSLSPGK
light: DIQMTQSPSSLSASVGDRVTITCRASQDIGSNLNWLQQKPGKAIKRLIYATFGLDSGVPSRFSGSRSGTDFTLTISSLQPEDFATYYCQQYASFPYTFGGGTKVEIKRTVAAPSVFIFPPSDEQLKSGTASVVCLLNNFYPREAKVQWKVDNALQSGNSQESVTEQDSKDSTYSLSSTLTLSKADYEKHKVYACEVTHQGLSSPVTKSFNRGEC
notes: Fab-scFv-Fab format with LALA mutations; copies: 1 + 1 + 2
B3: Bis-40E9-L2H10 (bispecific antibody)
heavy 1: not shown
heavy 2: EVQLVQSGAEVKKPGASVKVSCKASGYTFTSYVIHWVRQAPGQGLEWMGYFNPYNDGTKYNEEFKGRVTLTSDKSTSTAYMELRSLRSDDTAVYYCARGGVRRYFDVWGQGTTVTVSSASTKGPSVFPLAPSSKSTSGGTAALGCLVKDYFPEPVTVSWNSGALTSGVHTFPAVLQSSGLYSLSSVVTVPSSSLGTQTYICNVNHKPSNTKVDKKVEPKSCGGGGSGGGGSEVQLVQSGAEVKKPGSSVKVSCKASGYTFSSYVIHWVRQAPGQCLEWMGYINPYNDVIKYNEKFKGRVTLTSDKSTSTAYMELSSLRSEDTAVYYCARDSYYSYEAFAYWGQGTLVTVSSGGGGSGGGGSGGGGSGGGGSEIVLTQSPDFQSVTPKEKVTITCSASSSVSYMHWYQQKPDQSPKRLIYDTSKLASGVPSRFSGSGSGTDFTLTINSLEAEDAATYYCQQWSSNPPTFGCGTKVEIKGGGGSGGGGSDKTHTCPPCPAPEAAGGPSVFLFPPKPKDTLMISRTPEVTCVVVDVSHEDPEVKFNWYVDGVEVHNAKTKPREEQYNSTYRVVSVLTVLHQDWLNGKEYKCKVSNKALPAPIEKTISKAKGQPREPQVCTLPPSREEMTKNQVSLSCAVKGFYPSDIAVEWESNGQPENNYKTTPPVLDSDGSFFLVSKLTVDKSRWQQGNVFSCSVMHEALHNHYTQKSLSLSPGK
light: DIQMTQSPSSLSASVGDRVTITCRASQDIGSNLNWLQQKPGKAIKRLIYATFGLDSGVPSRFSGSRSGTDFTLTISSLQPEDFATYYCQQYASFPYTFGGGTKVEIKRTVAAPSVFIFPPSDEQLKSGTASVVCLLNNFYPREAKVQWKVDNALQSGNSQESVTEQDSKDSTYSLSSTLTLSKADYEKHKVYACEVTHQGLSSPVTKSFNRGEC
notes: as for B2
B4: Bis-40E9-L2H9 (bispecific antibody)
heavy 1: not shown
heavy 2: EVQLVQSGAEVKKPGASVKVSCKASGYTFTSYVIHWVRQAPGQGLEWMGYFNPYNDGTKYNEEFKGRVTLTSDKSTSTAYMELRSLRSDDTAVYYCARGGVRRYFDVWGQGTTVTVSSASTKGPSVFPLAPSSKSTSGGTAALGCLVKDYFPEPVTVSWNSGALTSGVHTFPAVLQSSGLYSLSSVVTVPSSSLGTQTYICNVNHKPSNTKVDKKVEPKSCGGGGSGGGGSEVQLVQSGAEVKKPGSSVKVSCKASGYTFSSYVIHWVRQAPGQCLEWMGYINPYSDVIKYNEKFKGRVTLTSDKSTSTAYMELSSLRSEDTAVYYCARESFYSYDGFAYWGQGTLVTVSSGGGGSGGGGSGGGGSGGGGSEIVLTQSPDFQSVTPKEKVTITCSASSSVSYMHWYQQKPDQSPKRLIYDTSKLASGVPSRFSGSGSGTDFTLTINSLEAEDAATYYCQQWSSNPPTFGCGTKVEIKGGGGSGGGGSDKTHTCPPCPAPEAAGGPSVFLFPPKPKDTLMISRTPEVTCVVVDVSHEDPEVKFNWYVDGVEVHNAKTKPREEQYNSTYRVVSVLTVLHQDWLNGKEYKCKVSNKALPAPIEKTISKAKGQPREPQVCTLPPSREEMTKNQVSLSCAVKGFYPSDIAVEWESNGQPENNYKTTPPVLDSDGSFFLVSKLTVDKSRWQQGNVFSCSVMHEALHNHYTQKSLSLSPGK
light: DIQMTQSPSSLSASVGDRVTITCRASQDIGSNLNWLQQKPGKAIKRLIYATFGLDSGVPSRFSGSRSGTDFTLTISSLQPEDFATYYCQQYASFPYTFGGGTKVEIKRTVAAPSVFIFPPSDEQLKSGTASVVCLLNNFYPREAKVQWKVDNALQSGNSQESVTEQDSKDSTYSLSSTLTLSKADYEKHKVYACEVTHQGLSSPVTKSFNRGEC
notes: as for B1
B5: Bis-40E9-L2H9 (bispecific antibody)
VH: EVQLVQSGAEVKKPGASVKVSCKASGYTFTSYVIHWVRQAPGQGLEWMGYFNPYNDGTKYNEEFKGRVTLTSDKSTSTAYMELRSLRSDDTAVYYCARGGVRRYFDVWGQGTTVTVSS
VL: DIQMTQSPSSLSASVGDRVTITCRASQDIGSNLNWLQQKPGKAIKRLIYATFGLDSGVPSRFSGSRSGTDFTLTISSLQPEDFATYYCQQYASFPYTFGGGTKVEIK
scFv: EVQLVQSGAEVKKPGSSVKVSCKASGYTFSSYVIHWVRQAPGQCLEWMGYINPYSDVIKYNEKFKGRVTLTSDKSTSTAYMELSSLRSEDTAVYYCARESFYSYDGFAYWGQGTLVTVSSGGGGSGGGGSGGGGSGGGGSEIVLTQSPDFQSVTPKEKVTITCSASSSVSYMHWYQQKPDQSPKRLIYDTSKLASGVPSRFSGSGSGTDFTLTINSLEAEDAATYYCQQWSSNPPTFGCGTKVEIK
notes: L234A/L235A

Key:
GPRC5D on MM.1S cells [1] = molecular target: T1, GPRC5D on MM.1S cells (human, UniProt Q9NZD1 1-345); experiment: cell-based or functional assay
T1 sequence (Q9NZD1 whole entry): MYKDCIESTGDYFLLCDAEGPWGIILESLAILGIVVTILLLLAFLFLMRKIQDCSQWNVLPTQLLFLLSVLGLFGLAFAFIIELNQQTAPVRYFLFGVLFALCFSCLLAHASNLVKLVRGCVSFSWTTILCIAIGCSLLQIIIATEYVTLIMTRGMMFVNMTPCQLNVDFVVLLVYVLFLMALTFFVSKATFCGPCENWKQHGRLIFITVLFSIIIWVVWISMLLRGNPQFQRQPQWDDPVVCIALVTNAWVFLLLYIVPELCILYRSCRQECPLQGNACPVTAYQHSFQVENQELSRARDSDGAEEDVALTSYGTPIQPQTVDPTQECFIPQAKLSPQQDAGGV

GPRC5D on MM.1S cells [2] = molecular target: T1, GPRC5D on MM.1S cells; experiment: cell-based or functional assay; remark: listed apart in the source
GPRC5D on MM.1S cells [3] = molecular target: T1, GPRC5D on MM.1S cells; experiment: FACS on MM.1S cells
Description: To evaluate the binding affinity of the generated chimeric bispecific antibody to T cells, the isolated CD3⁺ T cells were stained by antibodies and the binding affinity was determined by FACS analysis. The protocol of FACS analysis is described as follows: [0785] (a) CD3⁺ T cells were isolated from normal donors. [0786] (b) The isolated CD3⁺ T cells were washed by Staining Buffer (PBS+1% BSA) in round bottom 96-well plate. […] (c) Antibody dilutions were added to each well and mixed with the CD3+ T cells, incubated at 4 degrees for 1 hour. […] (d) Cells were spined at 300 g for 3 minutes, then the supernatants were discarded. [0789] (e) Cells were washed with Staining Buffer. [0790] (f) Step (d) was repeated, and the cells were incubated with secondary antibody in Staining Buffer for 0.5 hours at 4 degrees. [0791] (g) After incubation, step (d)-(e) were repeated. [0792] (h) Cells were resuspended in Staining Buffer and fluorescence signals were recorded by flow cytometry.
The binding affinities of the generated humanized Fab-scFv-Fab bispecific antibodies to MM.1S were evaluated by FACS analysis. The protocol for FACS analysis is identical to that described in Example 1.2, except that MM.1S were used in this example.

[4] = molecular target: T2, CD3 on T cells / Jurkat cells (human, UniProt P07766 23-207; P04234 22-171; P09693 23-182); experiment: FACS on Jurkat cells
T2 construct: whole, on cells; Native CD3 complex on CD3+ T cells isolated from normal donors or on Jurkat cells; also called human CD3; CD3+ T cells
T2 sequence (P07766 23-207, chain 1 of 3): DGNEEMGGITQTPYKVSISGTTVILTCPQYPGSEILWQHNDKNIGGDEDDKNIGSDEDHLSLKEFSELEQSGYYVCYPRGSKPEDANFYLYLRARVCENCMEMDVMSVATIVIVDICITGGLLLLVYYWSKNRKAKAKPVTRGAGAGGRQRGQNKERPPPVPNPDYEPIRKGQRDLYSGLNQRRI
T2 sequence (P04234 22-171, chain 2 of 3): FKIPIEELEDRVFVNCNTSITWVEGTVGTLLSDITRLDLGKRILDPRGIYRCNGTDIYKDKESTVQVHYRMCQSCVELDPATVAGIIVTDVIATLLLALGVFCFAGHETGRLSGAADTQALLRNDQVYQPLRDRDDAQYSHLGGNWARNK
T2 sequence (P09693 23-182, chain 3 of 3): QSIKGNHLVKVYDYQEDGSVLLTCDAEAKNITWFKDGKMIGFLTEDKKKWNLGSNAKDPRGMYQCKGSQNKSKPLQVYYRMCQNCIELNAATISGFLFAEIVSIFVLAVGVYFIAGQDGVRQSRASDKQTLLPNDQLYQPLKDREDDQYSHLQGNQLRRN

[5] = molecular target: T3, GPRC5D on multiple myeloma cells (human, UniProt Q9NZD1 1-345); experiment: FACS on MM.1S cells
T3 construct: whole, on cells; Endogenous GPRC5D on multiple myeloma cell lines; also called G-protein coupled receptor family C group 5 member D; MM.1S, MOLP-8, L363, RPMI8226 cells
T3 sequence (Q9NZD1 whole entry): as the sequence (Q9NZD1 whole entry) above

Binder	Ratio of Top cytotoxicity (relative to ATG-Bis-40E9), MM.1S cytotoxicity (GPRC5D on MM.1S cells [1]) [ratio]	Ratio of Top RLU (relative to ATG-Bis-40E9), luciferase assay on MM.1S (GPRC5D on MM.1S cells [2]) [ratio]	Ratio of EC50 (relative to ATG-Bis-40E9) (GPRC5D on MM.1S cells [3]) [ratio]	Ratio of Top MFI (relative to ATG-Bis-40E9) (GPRC5D on MM.1S cells [3]) [ratio]	Ratio of IC50 (relative to ATG-Bis-40E9), MM.1S cytotoxicity (GPRC5D on MM.1S cells [1]) [ratio]	Ratio of EC50 (relative to ATG-Bis-40E9), luciferase assay on MM.1S (GPRC5D on MM.1S cells [2]) [ratio]	binding result [4]	binding result [5]
B1	0.06	0.04	0.824	0.877				
B2	0.99	1.38	1.14	0.989	9.82	18		
B3	0.96	0.71	1.15	1.02	18.4	10.2		
B4	0.87	0.28	0.926	0.874	87.7	96.4		
B5							binds	binds

Reference: patent US20260193348A1 (ANTENGENE BIOLOGICS, published 2026)
